Results published in paper PMC3954559.

Experiments:
[1] = target: partially deglycosylated Fc (mouse IgG3 Fc domain treated with a mixture of endoglycosidases) (mouse); assay: SPR
[2] = target: commercial immunoglobulin containing Fc; assay: SPR

B1: mouse Fc receptor (FcR gamma I) (receptor)
chain: EVVNATKAVITLQPPWVSIFQKENVTLWCEGPHLPGDSSTQWFINGTAVQISTPSYSIPEASFQDSGEYRCQIGSSMPSDPVQLQIHNDWLLLQASRRVLTEGEPLALRCHGWKNKLVYNVVFYRNGKSFQFSSDSEVAILKTNLSHSGIYHCSGTGRHRYTSAGVSITVKELFTTPVLRASVSSPFPEGSLVTLNCETNLLLQRPGLQLHFSFYVGSKILEYRNTSSEYHIARAEREDAGFYWCEVATEDSSVLKRSPELELQVLGPQSSAPVWFHILFYLSVGIMFSLNTVLYVKIHRLQREKKYNLEVPLVSEQGKKANSFQQVRSDGVYEEVTATASQTTPKEAPDGPRSSVGDCGPEQPEPLPPSDSTGAQTSQS
Kd [1]: 1330 nM
Kd [2]: 384 nM
